From US20250376519A1 (JIANGSU HENGRUI PHARMACEUTICALS, published 2025)
Substitutions are numbered along the chain they refer to.

T1: human DLL3 (ACRO, DLL3-H52H4) (human, UniProt Q9NYJ7 27-492)
T1 construct: Bought
T1 sequence: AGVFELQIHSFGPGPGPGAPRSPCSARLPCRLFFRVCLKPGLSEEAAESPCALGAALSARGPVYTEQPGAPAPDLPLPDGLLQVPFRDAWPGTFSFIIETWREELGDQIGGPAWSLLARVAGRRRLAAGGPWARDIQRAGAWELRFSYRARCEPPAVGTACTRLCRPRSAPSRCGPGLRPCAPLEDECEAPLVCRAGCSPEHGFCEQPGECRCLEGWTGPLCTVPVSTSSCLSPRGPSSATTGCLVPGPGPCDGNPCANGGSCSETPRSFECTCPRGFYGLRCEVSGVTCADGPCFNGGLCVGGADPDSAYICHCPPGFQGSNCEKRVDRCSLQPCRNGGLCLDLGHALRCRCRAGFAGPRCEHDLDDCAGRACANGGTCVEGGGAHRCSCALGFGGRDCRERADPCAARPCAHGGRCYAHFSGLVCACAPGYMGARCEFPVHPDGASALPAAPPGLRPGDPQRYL

T2: human DLL3 on cells (human, UniProt Q9NYJ7 27-618)
T2 construct: Endogenous on H1184 and SHP77; Cell line is named under assay; also called H1184; DLL3/H82
T2 sequence: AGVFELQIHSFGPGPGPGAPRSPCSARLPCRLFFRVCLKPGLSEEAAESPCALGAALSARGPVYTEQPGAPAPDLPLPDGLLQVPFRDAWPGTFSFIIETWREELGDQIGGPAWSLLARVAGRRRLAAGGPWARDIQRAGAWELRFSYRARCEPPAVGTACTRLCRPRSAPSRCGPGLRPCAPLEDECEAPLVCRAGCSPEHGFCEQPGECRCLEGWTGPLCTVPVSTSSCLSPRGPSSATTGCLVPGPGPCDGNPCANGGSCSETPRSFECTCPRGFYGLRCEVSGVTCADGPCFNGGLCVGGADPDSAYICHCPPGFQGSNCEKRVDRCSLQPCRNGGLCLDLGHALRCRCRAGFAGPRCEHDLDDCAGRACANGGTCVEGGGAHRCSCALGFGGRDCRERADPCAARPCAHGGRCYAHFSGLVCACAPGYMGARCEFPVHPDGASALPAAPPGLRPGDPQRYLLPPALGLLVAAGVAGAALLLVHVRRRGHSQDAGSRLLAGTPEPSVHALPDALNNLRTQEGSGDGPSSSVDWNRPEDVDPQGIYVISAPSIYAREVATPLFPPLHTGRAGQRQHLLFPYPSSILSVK

B1: hu110L2H1 (antibody, human IgG1, kappa, V domains shown)
VH: EVQLVQSGAEVKKPGASVKVSCKASGYTFTDYYMNWVRQAPGQRLEWMGIINPYNGGTSYTQKFKGRVTITVDKSASTAYMELSSLRSEDTAVYYCARHFYDSSYLTYSTMDYWGQGTTVTVSS
VL: NIVMTQSPKSLAVSLGERATINCKASENVGIFVSWYQQKPGQSPKLLIYGASNRYTGVPDRFSGSGSATDFTLTISSLQAEDVADYYCGQSHSYPLTFGQGTKLEIKR
B2: hu110L2H3 (antibody, human IgG1, kappa, V domains shown)
VH: B1 VH with A24T, R44S, N55Q
VL: B1 VL
B3: hu110L2H4 (antibody, human IgG1, kappa, V domains shown)
VH: B1 VH with A24T, R44S, N55S
VL: B1 VL
B4: hu110L2H2 (antibody, human IgG1, kappa, V domains shown)
VH: B1 VH with A24T, R44S
VL: B1 VL
B5: hu110L2H6 (antibody, human IgG1, kappa, V domains shown)
VH: B1 VH with A24T, R44S, G56V
VL: B1 VL
B6: hu110L2H5 (antibody, human IgG1, kappa, V domains shown)
VH: B1 VH with A24T, R44S, N55T
VL: B1 VL
B7: hu30L1H8 (antibody, human IgG1, kappa, V domains shown)
VH: EVRLVQFGAVVKKPGASVKVSCKASGYTFTDYYMNWVRQAPGQSLEWMGIINPYTGDTSYNQKFRGRVTLTVDKSSSTAYMELSSLRSEDTAVYYCARYHYGPHLEGYFDVWGQGTTVTVSS
VL: DIVMTQSPDSLAVSLGERATINCKASENVGYVSWYQQKPGQPPKLLIYGASNRYTGVPDRFSGSGSGTDFTLTISSLQAEDVAVYYCGQSYSYPLTFGQGTKLEIKR
B8: hu30L4H5 (antibody, human IgG1, kappa, V domains shown)
VH: B7 VH with F7S, V10E, S76A
VL: DIQMTQSPSSLSASVGDRVTITCKASENVGYVSWYQQKPGKAPKLLIYGASNRYTGVPSRFSGSGSGTDFTLTISSLQPEDFATYYCGQSYSYPLTFGQGTKLEIKR
B9: hu30L4H8 (antibody, human IgG1, kappa, V domains shown)
VH: B7 VH
VL: B8 VL
B10: hu30L1H10 (antibody, human IgG1, kappa, V domains shown)
VH: B7 VH with F7S, V10E, A40S, P41H, S76A
VL: B7 VL
B11: PL-1 (bispecific antibody)
chain 1: not shown
chain 2: DIVLTQSPASLAVSPGQRATITCRASESVSIHGTHLMHWYQQKPGQPPKLLIYAASKLESGVPARFSGSGSGTDFTLTINPVEAEDTANYYCQQSFEDPLTFGQGTKLEIKGGGGSGIPPKIECLPIDISIDEGKVLTVASAFTGEPTPEVTWSTGGRKIHSQEQGRFHIENTDDLTTLIIKDVQKQDGGLYTLTLRNEFGSDSATVNIHIRSI
chain 3: not shown
chain 4: not shown
B12: PL-12 (bispecific antibody)
chain 1: not shown
chain 2: B11 chain 2 with G112R, G113T, G114V, G115A, V136C, L176S, I180T
chain 3: not shown
chain 4: not shown
B13: PL-5 (bispecific antibody)
chain 1: not shown
chain 2: B11 chain 2 with L176S, I180T
chain 3: not shown
chain 4: not shown
B14: PL-6 (bispecific antibody)
chain 1: not shown
chain 2: B11 chain 2 with V136C, L176S, I180T
chain 3: not shown
chain 4: not shown
B15: PL-19 (bispecific antibody)
chain 1: not shown
chain 2: B11 chain 2 with G112R, G113T, G114V, G115A, A142C, L176S, I180T
chain 3: not shown
chain 4: not shown
B16: PL-3 (bispecific antibody)
chain 1: not shown
chain 2: B11 chain 2 with V136C, L176S, I180T
chain 3: not shown
chain 4: not shown
B17: PL-15 (bispecific antibody)
chain 1: not shown
chain 2: B11 chain 2 with G112R, G113T, G114V, G115A, V136C, L176S, I180T
chain 3: not shown
chain 4: not shown
B18: PL-4 (bispecific antibody)
chain 1: not shown
chain 2: B11 chain 2 with A142C, L176S, I180T
chain 3: not shown
chain 4: not shown
B19: PL-17 (bispecific antibody)
chain 1: not shown
chain 2: B11 chain 2 with G112R, G113T, G114V, G115A, L176S, I180T
chain 3: not shown
chain 4: not shown
B20: PL-11 (bispecific antibody)
chain 1: not shown
chain 2: B11 chain 2 with G112R, G113T, G114V, G115A, L176S, I180T
chain 3: not shown
chain 4: not shown
B21: PL-2 (bispecific antibody)
chain 1: not shown
chain 2: B11 chain 2 with L176S, I180T
chain 3: not shown
chain 4: not shown
B22: PL-16 (bispecific antibody)
chain 1: not shown
chain 2: B11 chain 2 with G112R, G113T, G114V, G115A, A142C, L176S, I180T
chain 3: not shown
chain 4: not shown
B23: PL-10 (bispecific antibody)
chain 1: not shown
chain 2: B11 chain 2 with A142C, L176S, I180T
chain 3: not shown
chain 4: not shown
B24: PL-9 (bispecific antibody)
chain 1: not shown
chain 2: B11 chain 2 with V136C, L176S, I180T
chain 3: not shown
chain 4: not shown
B25: PL-8 (bispecific antibody)
chain 1: not shown
chain 2: B11 chain 2 with L176S, I180T
chain 3: not shown
chain 4: not shown
B26: PL-18 (bispecific antibody)
chain 1: not shown
chain 2: B11 chain 2 with G112R, G113T, G114V, G115A, V136C, L176S, I180T
chain 3: not shown
chain 4: not shown
B27: PL-13 (bispecific antibody)
chain 1: not shown
chain 2: B11 chain 2 with G112R, G113T, G114V, G115A, A142C, L176S, I180T
chain 3: not shown
chain 4: not shown
B28: PL-14 (bispecific antibody)
chain 1: not shown
chain 2: B11 chain 2 with G112R, G113T, G114V, G115A, L176S, I180T
chain 3: not shown
chain 4: not shown
B29: PL-7 (bispecific antibody)
chain 1: not shown
chain 2: B11 chain 2 with A142C, L176S, I180T
chain 3: not shown
chain 4: not shown

Target: T1, human DLL3 (ACRO, DLL3-H52H4)
Assay: SPR Biacore 8K, Ab captured on Protein A
In short: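 Antibodies captured on a Protein A chip for 18 s; DLL3 or CD3D&3E antigen flowed 180 s, then 600 s dissociation, with real-time detection. Regeneration used 10 mM glycine-HCl pH 1.5 between cycles. Kinetics were obtained by 1:1 model fitting.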

Point of comparison: B10, Kd 2.19 nM. Against it:
- B1 — 19-fold lower, 0.115 nM
- B2 — 19-fold lower, 0.117 nM
- B3 — 21-fold lower, 0.103 nM
- B4 — 18-fold lower, 0.12 nM
- B5 — 13-fold lower, 0.167 nM
- B6 — 11-fold lower, 0.206 nM
- B7 — within 1.5-fold, 2.57 nM
- B8 — within 1.5-fold, 2.09 nM
- B9 — within 1.5-fold, 2.74 nM

Point of comparison: B6, koff 8.96e-05 s⁻¹. Against it:
- B1 — 1.5-fold lower, 5.84e-05 s⁻¹
- B2 — within 1.5-fold, 6.45e-05 s⁻¹
- B3 — 1.8-fold lower, 5.11e-05 s⁻¹
- B4 — within 1.5-fold, 6.25e-05 s⁻¹
- B5 — within 1.5-fold, 6.86e-05 s⁻¹
- B7 — 12-fold higher, 0.00109 s⁻¹
- B8 — 10-fold higher, 0.00092 s⁻¹
- B9 — 11-fold higher, 0.000942 s⁻¹
- B10 — 11-fold higher, 0.000964 s⁻¹

Point of comparison: B9, kon 343000 M⁻¹ s⁻¹. Against it:
- B1 — within 1.5-fold, 509000 M⁻¹ s⁻¹
- B2 — 1.6-fold higher, 550000 M⁻¹ s⁻¹
- B3 — within 1.5-fold, 496000 M⁻¹ s⁻¹
- B4 — 1.5-fold higher, 521000 M⁻¹ s⁻¹
- B5 — within 1.5-fold, 411000 M⁻¹ s⁻¹
- B6 — within 1.5-fold, 434000 M⁻¹ s⁻¹
- B7 — within 1.5-fold, 425000 M⁻¹ s⁻¹
- B8 — within 1.5-fold, 440000 M⁻¹ s⁻¹
- B10 — within 1.5-fold, 440000 M⁻¹ s⁻¹

Target: T2, human DLL3 on cells
Assay: flow cytometry, DLL3/H82 cells
Method: (§1) The plates were centrifuged at 300 g for 5 min, and the supernatant was removed. Different concentrations of test antibodies were added at 100 μL/well. The plates were incubated in the dark in a refrigerator at 4° C. for 1 h. After 3 centrifugal washes at 300 g, working concentrations of APC anti-human IgG Fc (BioLegend, 410712) or PE F(ab′)2-goat anti-human IgG (invitrogen, H10104) were added. The plates were incubated in the dark in a refrigerator at 4° C. for 40 min. After 3 centrifugal washes at 300 g, the geometric mean fluorescence intensity was measured on an Invitrogen flow cytometer, and the EC50 values for the binding of the antibodies to DLL3-expressing cells were calculated.

Point of comparison: B4, EC50 1.25 nM. Against it:
- B1 — the same, 1.25 nM
- B2 — within 1.5-fold, 1.32 nM
- B3 — within 1.5-fold, 1.41 nM
- B5 — within 1.5-fold, 1.4 nM
- B6 — within 1.5-fold, 1.71 nM

Point of comparison: B4, Emax 4750. Against it:
- B1 — lower, 4720
- B2 — lower, 4570
- B3 — lower, 4600
- B5 — higher, 5190
- B6 — lower, 4670

Target: T2, human DLL3 on cells
Assay: flow cytometry, SHP77 cells
Method: as §1

Point of comparison: B9, EC50 5.3 nM. Against it:
- B7 — within 1.5-fold, 5.67 nM
- B8 — within 1.5-fold, 5.44 nM
- B10 — 1.5-fold higher, 7.99 nM

Point of comparison: B10, Emax 1630. Against it:
- B7 — lower, 1380
- B8 — lower, 1460
- B9 — lower, 1420

Target: T3, hCTLA4 (human, UniProt P16410 36-162, limits assumed)
T3 construct: bought
Assay: ELISA

T3 sequence (P16410 36-162 limits assumed): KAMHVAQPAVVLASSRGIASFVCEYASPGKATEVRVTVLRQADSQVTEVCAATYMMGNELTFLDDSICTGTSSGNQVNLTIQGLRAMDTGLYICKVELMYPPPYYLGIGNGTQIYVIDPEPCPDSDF

Point of comparison: B28, EC50 6 nM. Against it:
- B11 — 2.8-fold higher, 16.5 nM
- B12 — within 1.5-fold, 8 nM
- B13 — within 1.5-fold, 6.7 nM
- B14 — within 1.5-fold, 5.3 nM
- B15 — within 1.5-fold, 6.5 nM
- B16 — within 1.5-fold, 7.9 nM
- B17 — 1.9-fold lower, 3.2 nM
- B18 — within 1.5-fold, 6.5 nM
- B19 — within 1.5-fold, 6.2 nM
- B20 — within 1.5-fold, 5.6 nM
- B21 — within 1.5-fold, 8 nM
- B22 — 5.8-fold higher, 34.9 nM
- B23 — within 1.5-fold, 6.9 nM
- B24 — within 1.5-fold, 5.5 nM
- B25 — 2.4-fold higher, 14.5 nM
- B26 — within 1.5-fold, 6.7 nM
- B27 — within 1.5-fold, 4.4 nM
- B29 — within 1.5-fold, 7.3 nM

Target: T4, hPDL1 (human, UniProt Q9NZQ7 19-239)
T4 construct: bought
Assay: ELISA

T4 sequence (Q9NZQ7 19-239 limits assumed): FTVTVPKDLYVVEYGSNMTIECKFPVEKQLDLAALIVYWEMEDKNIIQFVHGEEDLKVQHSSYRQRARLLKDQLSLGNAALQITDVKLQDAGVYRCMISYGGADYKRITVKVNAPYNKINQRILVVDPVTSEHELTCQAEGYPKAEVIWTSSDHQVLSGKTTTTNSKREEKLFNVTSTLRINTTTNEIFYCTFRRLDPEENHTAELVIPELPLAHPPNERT

Point of comparison: B25, EC50 1.4 nM. Against it:
- B11 — within 1.5-fold, 1.6 nM
- B12 — 2.8-fold lower, 0.5 nM
- B13 — 2-fold lower, 0.7 nM
- B14 — 1.7-fold lower, 0.8 nM
- B15 — within 1.5-fold, 1.6 nM
- B16 — 2.3-fold lower, 0.6 nM
- B17 — the same, 1.4 nM
- B18 — 2-fold lower, 0.7 nM
- B19 — the same, 1.4 nM
- B20 — 2.3-fold lower, 0.6 nM
- B21 — 2.8-fold lower, 0.5 nM
- B22 — within 1.5-fold, 1.7 nM
- B23 — 2.3-fold lower, 0.6 nM
- B24 — 2.3-fold lower, 0.6 nM
- B26 — within 1.5-fold, 1.6 nM
- B27 — 2.8-fold lower, 0.5 nM
- B28 — within 1.5-fold, 1.3 nM
- B29 — 2.8-fold lower, 0.5 nM
